From US20250154231A1 (RQBIO COVID, published 2025)
Numbering of substitutions follows the chain as printed.

B1: Omi18 (antibody, V domains shown)
VH: QVQLVESGGGLIQPGGSLRLSCAASGITVSSNYMTWVRQAPGKGLEWVSLLYAGGSAFYADSVKGRFTISRDNSKNTLYLLMNSLRVGDTAVYYCARDLQVYGMDVWGQGTTVTVSS
VL: SYELTQPPSVSVAPGQTARITCGGNNDGAKSVHWYQQKPGQAPVLVVYDDSDRPSGIPERFSGSNSGNTATLTITRIEAGDEADYYCQVWDSSRDHVFGTGTKVTVL
B2: Omi16 (antibody, V domains shown)
VH: EVQLVESGGGVVQPGGSLRLSCAASGIIVSANYMTWVRQAPGKGLEWVSVIYPGGSTFYADSVKGRFTISRDNSKNTLYLQMNSLRVEDSAVYYCARDLELAGFNDFWGQGTLVTVSS
VL: DVVMTQSPGTLALSPGERATLSCRTSQSVSSNYLAWYQQKPGQAPRLLIYGASSRATGIPDRFSGSGSGTDFTLTISRLEPEDFAVYYCQQFGSSPRYTFGQGTKVEIK
B3: Omi17 (antibody, V domains shown)
VH: QVQLVESGGGVVQPGGSLRLSCAASGVTVSSNYMSWVRQAPGKGLEWVSVLYAGGSTFYADSVKGRFTISRDNSKNTLYLQMNSLRAEDTAAYYCARDLAVAGFLDSWGQGTLVTVSS
VL: B2 VL with V2I, A12S, T25A, S28G, N32I, L48V, I49L, F92Y

The binders below were run against SARS-CoV-1 S protein (SARS-CoV-1, UniProt P59594 14-1195) (assay: ELISA).

| Binder | binding result |
| --- | --- |
| B1 | no binding |
| B2 | no binding |
| B3 | no binding |
